# Assay results reported in US20250042994A1.
# How the values were obtained:
# [1] = biological target: human CD19 on Raji cells (human) (UniProt P15391); assay: FACS on Raji cells
# [2] = biological target: Human CD19-his protein (human) (UniProt P15391); assay: ELISA, coated human CD19-His
# [3] = biological target: human CD19 on CHO-K1-human CD19 cells (human) (UniProt P15391); assay: FACS on CHO-K1-human CD19 cells
# [4] = biological target: human CD19 on the surface of cells (human) (UniProt P15391); assay: FACS on CHO-K1-human CD19-2C8
# Chain of human CD19 on the surface of cells (human) (P15391 20-556): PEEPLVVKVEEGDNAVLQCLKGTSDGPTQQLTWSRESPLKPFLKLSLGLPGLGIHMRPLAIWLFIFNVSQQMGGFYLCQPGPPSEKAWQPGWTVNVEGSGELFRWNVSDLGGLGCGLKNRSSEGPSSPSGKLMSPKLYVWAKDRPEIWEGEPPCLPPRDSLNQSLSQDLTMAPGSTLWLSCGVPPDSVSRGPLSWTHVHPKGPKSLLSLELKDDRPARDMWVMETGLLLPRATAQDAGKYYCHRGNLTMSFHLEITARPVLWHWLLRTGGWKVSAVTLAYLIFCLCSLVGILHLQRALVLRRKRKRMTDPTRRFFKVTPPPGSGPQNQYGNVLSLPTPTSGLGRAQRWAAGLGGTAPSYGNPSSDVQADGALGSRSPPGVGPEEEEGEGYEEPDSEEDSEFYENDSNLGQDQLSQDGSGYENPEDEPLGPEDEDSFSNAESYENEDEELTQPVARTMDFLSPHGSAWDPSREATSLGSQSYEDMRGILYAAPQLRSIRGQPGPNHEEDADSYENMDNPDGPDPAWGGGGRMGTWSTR
# [5] = biological target: human CD19 on the surface of cells (human) (UniProt P15391); assay: FACS on CHO-K1-human CD19-2G4
# [6] = biological target: monkey CD19 on cells (monkey); assay: FACS on HEK293T-monkey CD19
# [7] = biological target: human CD19 on the surface of cells (human) (UniProt P15391); assay: FACS on CHO-K1-human CD19-1C4
# [8] = biological target: human CD19 on the surface of cells (human) (UniProt P15391); assay: FACS on CHO-K1-human CD19-1C9
# [9] = biological target: human CD19 on the surface of cells (human) (UniProt P15391); assay: FACS on Raji cells
# [10] = biological target: Human CD19-his protein (human) (UniProt P15391); assay: ELISA, antibody at 0.01 nM
# [11] = biological target: monkey CD19 on HEK293T-monkey CD19 cells (monkey); assay: FACS on HEK293T-monkey CD19 cells
# [12] = biological target: Human CD19-his protein (human) (UniProt P15391); assay: ELISA, antibody at 10 nM
# [13] = biological target: Human CD19-his protein (human) (UniProt P15391); assay: ELISA, antibody at 0.001 nM
# [14] = biological target: Human CD19-his protein (human) (UniProt P15391); assay: ELISA, antibody at 1.00 nM
# [15] = biological target: Human CD19-his protein (human) (UniProt P15391); assay: ELISA, antibody at 0.0001 nM
# [16] = biological target: cynomolgus monkey CD19 on peripheral blood B cells (cynomolgus monkey (Macaca fascicularis)); assay: FACS, cynomolgus PBMC, CD20+ B cells
# [17] = biological target: Human CD19-his protein (human) (UniProt P15391); assay: ELISA, antibody at 0.10 nM
# [18] = biological target: Human CD19-his protein (human) (UniProt P15391); assay: ELISA, antibody at 100 nM
# Chain of Human CD19-his protein (human) (P15391 20-291 limits assumed): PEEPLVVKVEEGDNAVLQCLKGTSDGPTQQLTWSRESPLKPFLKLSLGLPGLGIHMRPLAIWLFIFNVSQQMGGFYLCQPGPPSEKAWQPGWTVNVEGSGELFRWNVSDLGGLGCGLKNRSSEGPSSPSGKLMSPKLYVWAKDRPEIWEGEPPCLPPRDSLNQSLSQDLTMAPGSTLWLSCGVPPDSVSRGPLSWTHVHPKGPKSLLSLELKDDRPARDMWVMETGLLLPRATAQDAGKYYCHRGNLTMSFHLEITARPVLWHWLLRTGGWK
# Chain of human CD19 on CHO-K1-human CD19 cells (human) (P15391 20-556): as the sequence (P15391 20-556) above
# Chain of human CD19 on Raji cells (human) (P15391 20-556): as above
substance,measurement,setting,value
anti-hel-mIgG1 (antibody),Maximum mean fluorescence intensity,[1],651 MFI
same,OD450 at 0.0001 nM,[2],0.09 OD450
same,OD450 at 0.001 nM,[2],0.08 OD450
same,OD450 at 0.01 nM,[2],0.08 OD450
same,OD450 at 0.10 nM,[2],0.08 OD450
same,OD450 at 1.00 nM,[2],0.08 OD450
same,OD450 at 100 nM,[2],0.17 OD450
same,Maximum mean fluorescence intensity,[3],82 MFI
IgG subtype control (antibody),mean fluorescence intensity,[4],50
same,mean fluorescence intensity,[5],50
same,mean fluorescence intensity,[6],62
same,mean fluorescence intensity,[7],50
same,mean fluorescence intensity,[8],50
same,mean fluorescence intensity,[9],72
anti-hel-hIgG1 (antibody),OD450,[10],0.05
same,Maximum mean fluorescence intensity,[11],90
same,OD450,[12],0.05
same,OD450,[13],0.05
same,OD450,[14],0.05
same,OD450,[15],0.04
same,Proportion of chimeric antibody positive cells to B cells (%) at 1 nM,[16],1%
same,Proportion of chimeric antibody positive cells to B cells (%) at 10 nM,[16],1%
same,Proportion of chimeric antibody positive cells to B cells (%) at 100 nM,[16],1%
same,Maximum mean fluorescence intensity,[1],435
same,OD450,[17],0.05
same,Maximum mean fluorescence intensity,[3],99
same,OD450,[18],0.08
